According to PMC2932712, “Formation of Mobile Chromatin-Associated Nuclear Foci Containing HIV-1 Vpr and VPRBP Is Critical for the Induction of G2 Cell Cycle Arrest” (PLoS Pathogens, 2010):
Positions count from the first letter of the chain named.

Legend:
Test in all cases: FRET or BRET; BRET saturation in live HEK293T cells; fixed Rluc donor plasmid (10 ng), increasing eYFP acceptor plasmid (0 to 500 ng); coelenterazine H; BRET50 as relative affinity
Details in all cases: partners not purified
Rluc-Vpr (WT) = target: T1, Rluc-Vpr (WT) (HIV-1, UniProt P05928 1-96)
T1 construct: BRET donor; also called pCDNA3.1-Rluc-Vpr (WT); source: HEK293T, transfected, in live cells; not shown: renilla luciferase (Rluc), N-terminal, kept
T1 sequence: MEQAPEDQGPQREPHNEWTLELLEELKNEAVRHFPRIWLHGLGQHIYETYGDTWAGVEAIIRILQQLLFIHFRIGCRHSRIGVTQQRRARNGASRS

Rluc-Vpr (R80A) = target: T2, Rluc-Vpr (R80A) (HIV-1, UniProt P05928 1-96, R80A)
T2 construct: BRET donor; also called the R80A mutant; pCDNA3.1-Rluc-Vpr (R80A); source: HEK293T, transfected, in live cells; not shown: renilla luciferase (Rluc), N-terminal, kept
T2 sequence: T1 sequence with R80A

Rluc-Vpr (Q65R) = target: T3, Rluc-Vpr (Q65R) (HIV-1, UniProt P05928 1-96, Q65R)
T3 construct: BRET donor; also called the Q65R mutant; pCDNA3.1-Rluc-Vpr (Q65R); source: HEK293T, transfected, in live cells; not shown: renilla luciferase (Rluc), N-terminal, kept
T3 sequence: T1 sequence with Q65R

B1: eYFP-Vpr (WT) (natural protein)
chain: T1 sequence
notes: BRET acceptor; also called wild type eYFP-Vpr; pCDNA3.1-eYFP-Vpr(WT); source: HEK293T, transfected, in live cells; not shown: eYFP, N-terminal, kept
Rluc-Vpr (WT)
  BRET50: 0.397 fluorescence/luminescence
Rluc-Vpr (R80A)
  BRET50: 0.326 fluorescence/luminescence
Rluc-Vpr (Q65R)
  BRET50: 0.791 fluorescence/luminescence
